Measurements from publication PMC7717961, “O-GlcNAcylation Suppresses the Ion Current IClswell by Preventing the Binding of the Protein ICln to α-Integrin” (Frontiers in Cell and Developmental Biology, 2020).
Residue numbers refer to the chain shown, from its start.

B1: ICln: 100 μM PUGNAc plus 5 mM glucosamine (protein)
parent chain: MSFLKSFPPPGPAEGLLRQQPDTEAVLNGKGLGTGTLYIAESRLSWLDGSGLGFSLEYPTISLHALSRDRSDCLGEHLYVMVNAKFEEESKEPVADEEEEDSDDDVEPITEFRFVPSDKSALEAMFTAMCECQALHPDPEDEDSDDYDGEEYDVEAHEQGQGDIPTFYTYEEGLSHLTAEGQATLERLEGMLSQSVSSQYNMAGVRTEDSIRDYEDGMEVDTTPTVAGQFEDADVDH
B2: ECFP-ICln Ser67Ala (natural protein, UniProt P54105 1-237, looked up)
chain: B1 parent chain with S67A
notes: ICln with Ser67Ala, made by site-directed mutagenesis of the vector with the wild-type ICln cDNA; also called Ser67Ala ICln; source: NIH/3T3, transfected for 48 h, in fixed cells; not shown: ECFP, N-terminal, kept

What was measured:
[1] = patch clamp, IClswell in wild-type ICln-transfected cells; conditions: control: vehicle (0.1% DMSO plus 5 mM D-glucose)
[2] = target: T1, integrin αIIbshort-EYFP (amino acids 987-1039 of the human integrin αIIb chain fused to EYFP) (human, UniProt P08514-1 987-1039); test: FRET or BRET; acceptor photobleaching FRET in fixed NIH/3T3 cells transfected for 48 h; donor ECFP-ICln, acceptor αIIbshort-EYFP; FRET efficiency in three-four plasma membrane ROIs of each cell; O-GlcNAcylation left unmodified, increased with 100 μM PUGNAc plus 5 mM glucosamine for 1 h, or reduced by co-transfection of OGA-L; conditions: partners not purified
T1 construct: human integrin αIIb chain, amino acids 987-1039 of NP_000410.2 (integrin αIIbshort); also called αIIbs-EYFP; αIIb integrin; source: NIH/3T3, transfected for 48 h, in fixed cells; not shown: EYFP, C-terminal, kept
T1 sequence (P08514 987-1039): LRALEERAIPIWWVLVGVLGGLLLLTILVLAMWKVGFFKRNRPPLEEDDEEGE

Row | Binder | other: channel current, other: % variation of current at +100 mV [1] | FRET efficiency relative to wild-type ICln [2] [fold]
1 | B1 | decreases | 
2 | B2 |  | ~3
